Assay results reported in PMC4865869.

Key:
[1] = target: Rap1 pre-loaded with mGppNHp (GDI assay) (Dictyostelium) (UniProt P18613); assay: guanine nucleotide dissociation inhibition (GDI) assay; Rap1 or RasG pre-loaded with fluorescent mGppNHp, excess unlabeled GppNHp, with or without 1 uM RIP3^RBD; kobs of fluorescence decay; without effector kobs Rap1 5.0 x 10^-5 s^-1, RasG 5.9 x 10^-5 s^-1
[2] = target: GST-fused RasC (Dictyostelium) (UniProt P32253); assay: pull-down; GFP-FRB/Kin^TOR with active GST-fused GTPase (GppNHp-loaded or constitutively active mutant), 25 ug of each, 50 mM Tris-Cl, 150 mM NaCl, 5 mM MgCl2, 1 mM beta-mercaptoethanol, pH 7.5; GSH resin; washes with 500 mM NaCl; GFP and GST immunoblotting
[3] = target: constitutively active RasC mutant (RasC^CA, G62L) (Dictyostelium) (UniProt P32253); assay: as above

UniProt P18613, sequence (P18613 whole entry, the tested form may be a part): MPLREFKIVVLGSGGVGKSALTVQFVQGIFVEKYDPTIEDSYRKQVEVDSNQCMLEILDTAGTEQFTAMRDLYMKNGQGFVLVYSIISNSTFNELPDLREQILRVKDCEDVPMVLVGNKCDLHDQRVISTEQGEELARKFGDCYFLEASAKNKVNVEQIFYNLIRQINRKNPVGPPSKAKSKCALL

| Substance | kobs of mGppNHp dissociation from Rap1 with 1 uM RIP3^RBD [1] | binding efficiency (percent) [2] | binding efficiency (percent) [3] |
| --- | --- | --- | --- |
| RIP3^RBD (aa 511-838) (domain or fragment) | 1e-07 s⁻¹ |  |  |
| GFP-fused TOR catalytic domain (FRB/Kin^TOR, aa 1820-2380) (from UniProt Q86C65 1820-2380) (domain or fragment) |  | 9% | 9% |
